The test system of data set [1] is Saccharomyces cerevisiae. As to the kind of experiment: protein stability index of tFT-peptide fusion (C-terminal peptide) (PSI (0-1 scale)); higher = more stable (slower turnover). The settings on record: genetic background: wild type; temperature: 30 C.
Data set [2] deals with Saccharomyces cerevisiae. The description is as above. As to the method:
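MPS profiling in S. cerevisiae of the tFT-X12 degron library: putative degron peptides plus stable controls, 12 aa, fused to the C-terminus of a sfGFP-mCherry timer. Cells are FACS-sorted into 8 mCherry/sfGFP bins and deep-sequenced. PSI runs from 0 (unstable) to 1 (stable). Backgrounds are wild type, das1Δ and doa10Δ at 30 °C, and wild type, das1Δ, cdc34-1 and cdc53-1 at 37 °C; 2-3 technical replicates each.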

The mark [3] stands for this setting: genetic background: cdc34-1, temperature: 37 C.
[4] abbreviates: genetic background: cdc53-1, temperature: 37 C.
[5] abbreviates: genetic background: das1 deletion, temperature: 30 C.
Setting [6] is: genetic background: das1 deletion, temperature: 37 C.
Setting [7] is: genetic background: doa10 deletion, temperature: 30 C.
Setting [8] is: genetic background: wild type, temperature: 30 C.
The mark [9] stands for this setting: genetic background: wild type, temperature: 37 C.

± gives the standard deviation of the averaged measurements.
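Also: PSI is a weighted mean of sequencing reads over stability bins, variants kept only with over 10 reads, mCherry proximal and sfGFP distal, peptide attached via GGGS linker.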

On to ACACFWVVWVGW, for which the protein stability index in the data set on Saccharomyces cerevisiae [1] is 0.378 ± 0.03; in the data set with Saccharomyces cerevisiae [2] (setting [3]) it was 0.262 ± 0.027; in the data set with Saccharomyces cerevisiae [2] (setting [4]), 0.374 ± 0.021; in the data set on Saccharomyces cerevisiae [2] (setting [5]), 0.248 ± 0.024; in the data set on Saccharomyces cerevisiae [2] (setting [6]) it was 0.4309 ± 0.0018; in the data set on Saccharomyces cerevisiae [2] (setting [7]) it was 0.217 ± 0.021. In addition, the protein stability index with Saccharomyces cerevisiae [2] (setting [8]) worked out at 0.238 ± 0.035; in the data set with Saccharomyces cerevisiae [2] (setting [9]) it was 0.402 ± 0.0083.
For the sequence ACEFRFFYVFRC, the protein stability index with Saccharomyces cerevisiae [1] turned out to be 0.315 ± 0.008; in the data set on Saccharomyces cerevisiae [2] (setting [3]), 0.304 ± 0.0093; with Saccharomyces cerevisiae [2] (setting [4]) it was 0.245 ± 0.016; in the data set with Saccharomyces cerevisiae [2] (setting [5]), 0.31 ± 0.056; with Saccharomyces cerevisiae [2] (setting [6]), 0.425 ± 0.015; in the data set with Saccharomyces cerevisiae [2] (setting [7]), 0.278 ± 0.0034. Also, the protein stability index in the data set on Saccharomyces cerevisiae [2] (setting [8]) was 0.176 ± 0.016; with Saccharomyces cerevisiae [2] (setting [9]), 0.287 ± 0.034.
AERPVLIIIEFG: the protein stability index in the data set on Saccharomyces cerevisiae [1] is 0.417 ± 0.027; in the data set with Saccharomyces cerevisiae [2] (setting [3]), 0.416 ± 0.039; in the data set with Saccharomyces cerevisiae [2] (setting [4]) it was 0.532 ± 0.064; in the data set on Saccharomyces cerevisiae [2] (setting [5]) it was 0.337 ± 0.031; with Saccharomyces cerevisiae [2] (setting [6]) it was 0.5315 ± 0.0052; in the data set with Saccharomyces cerevisiae [2] (setting [7]), 0.296 ± 0.015. In addition, the protein stability index turned out to be 0.339 ± 0.047 in the data set on Saccharomyces cerevisiae [2] (setting [8]) and 0.5248 ± 0.0013 in the data set on Saccharomyces cerevisiae [2] (setting [9]).
Take AFFCTLCLFLVS: the protein stability index was 0.402 ± 0.014 in the data set with Saccharomyces cerevisiae [1]; 0.44 ± 0.02 in the data set on Saccharomyces cerevisiae [2] (setting [3]); 0.472 ± 0.033 in the data set on Saccharomyces cerevisiae [2] (setting [4]); 0.36 ± 0.036 in the data set with Saccharomyces cerevisiae [2] (setting [5]); 0.496 ± 0.012 in the data set with Saccharomyces cerevisiae [2] (setting [6]); 0.3064 ± 0.002 with Saccharomyces cerevisiae [2] (setting [7]). The results for the protein stability index with Saccharomyces cerevisiae [2] (setting [8]) and in the data set with Saccharomyces cerevisiae [2] (setting [9]) were 0.323 ± 0.037 and 0.478 ± 0.023, respectively.
Regarding AFLCVFGFCFFV, the protein stability index was 0.339 ± 0.037 in the data set with Saccharomyces cerevisiae [1]; 0.423 ± 0.015 in the data set with Saccharomyces cerevisiae [2] (setting [3]); 0.455 ± 0.014 in the data set on Saccharomyces cerevisiae [2] (setting [4]); 0.372 ± 0.035 with Saccharomyces cerevisiae [2] (setting [5]); 0.482 ± 0.026 with Saccharomyces cerevisiae [2] (setting [6]); 0.285 ± 0.008 with Saccharomyces cerevisiae [2] (setting [7]). In addition, the figures for the protein stability index in the data set on Saccharomyces cerevisiae [2] (setting [8]) and in the data set with Saccharomyces cerevisiae [2] (setting [9]) were 0.278 ± 0.019 and 0.407 ± 0.025, respectively.
For AFRLRHEIISLM, the protein stability index in the data set on Saccharomyces cerevisiae [1] was 0.282 ± 0.013; with Saccharomyces cerevisiae [2] (setting [3]) it was 0.552 ± 0.081; with Saccharomyces cerevisiae [2] (setting [4]), 0.726 ± 0.024; in the data set on Saccharomyces cerevisiae [2] (setting [5]), 0.63 ± 0.056; in the data set on Saccharomyces cerevisiae [2] (setting [6]) it was 0.744 ± 0.037; with Saccharomyces cerevisiae [2] (setting [7]), 0.136 ± 0.0049. In addition, the values for the protein stability index in the data set with Saccharomyces cerevisiae [2] (setting [8]) and in the data set with Saccharomyces cerevisiae [2] (setting [9]) were 0.139 ± 0.037 and 0.344 ± 0.041, respectively.
On to AGGLLIGSVGVG, for which the protein stability index stood at 0.45 ± 0.008 in the data set on Saccharomyces cerevisiae [1]; 0.434 ± 0.013 with Saccharomyces cerevisiae [2] (setting [3]); 0.468 ± 0.0094 with Saccharomyces cerevisiae [2] (setting [4]); 0.4439 ± 0.0038 in the data set on Saccharomyces cerevisiae [2] (setting [5]); 0.468 ± 0.0066 with Saccharomyces cerevisiae [2] (setting [6]); 0.4523 ± 0.0042 with Saccharomyces cerevisiae [2] (setting [7]). Moreover, the protein stability index in the data set on Saccharomyces cerevisiae [2] (setting [8]) came out at 0.4436 ± 0.0017; with Saccharomyces cerevisiae [2] (setting [9]), 0.4604 ± 0.0028.
On to AISLPVEVLAFS, for which the protein stability index amounted to 0.383 ± 0.048 in the data set with Saccharomyces cerevisiae [1]; 0.4 ± 0.028 in the data set with Saccharomyces cerevisiae [2] (setting [3]); 0.387 ± 0.024 in the data set on Saccharomyces cerevisiae [2] (setting [4]); 0.286 ± 0.051 in the data set on Saccharomyces cerevisiae [2] (setting [5]); 0.438 ± 0.022 with Saccharomyces cerevisiae [2] (setting [6]); 0.255 ± 0.025 in the data set on Saccharomyces cerevisiae [2] (setting [7]). Also, the values for the protein stability index with Saccharomyces cerevisiae [2] (setting [8]) and in the data set on Saccharomyces cerevisiae [2] (setting [9]) were 0.293 ± 0.01 and 0.439 ± 0.021, respectively.
Regarding AKVSFYALARQY, the protein stability index in the data set with Saccharomyces cerevisiae [1] was found to be 0.414 ± 0.036; with Saccharomyces cerevisiae [2] (setting [3]), 0.665 ± 0.017; in the data set with Saccharomyces cerevisiae [2] (setting [4]), 0.715 ± 0.018; with Saccharomyces cerevisiae [2] (setting [5]) it was 0.636 ± 0.018; with Saccharomyces cerevisiae [2] (setting [6]) it was 0.726 ± 0.016; in the data set with Saccharomyces cerevisiae [2] (setting [7]) it was 0.323 ± 0.0065. Also, the figures for the protein stability index in the data set with Saccharomyces cerevisiae [2] (setting [8]) and in the data set on Saccharomyces cerevisiae [2] (setting [9]) were 0.355 ± 0.025 and 0.563 ± 0.0078, respectively.
As for ALEFLLLVCRRL, the protein stability index in the data set with Saccharomyces cerevisiae [1] was found to be 0.418 ± 0.012; with Saccharomyces cerevisiae [2] (setting [3]) it was 0.589 ± 0.026; in the data set on Saccharomyces cerevisiae [2] (setting [4]) it was 0.621 ± 0.024; with Saccharomyces cerevisiae [2] (setting [5]) it was 0.457 ± 0.011; with Saccharomyces cerevisiae [2] (setting [6]), 0.6018 ± 0.0059; in the data set on Saccharomyces cerevisiae [2] (setting [7]), 0.31 ± 0.026. Also, the values for the protein stability index in the data set with Saccharomyces cerevisiae [2] (setting [8]) and in the data set with Saccharomyces cerevisiae [2] (setting [9]) were 0.334 ± 0.028 and 0.517 ± 0.013, respectively.
Take ALFLYNCVVVTD: the protein stability index with Saccharomyces cerevisiae [1] was determined as 0.136 ± 0.0097; with Saccharomyces cerevisiae [2] (setting [3]) it was 0.0493 ± 0.0086; in the data set with Saccharomyces cerevisiae [2] (setting [4]), 0.137 ± 0.018; with Saccharomyces cerevisiae [2] (setting [5]), 0.146 ± 0.04; in the data set on Saccharomyces cerevisiae [2] (setting [6]), 0.25 ± 0.015; in the data set on Saccharomyces cerevisiae [2] (setting [7]), 0.132 ± 0.011. The protein stability index in the data set on Saccharomyces cerevisiae [2] (setting [8]) stood at 0.143 ± 0.045; with Saccharomyces cerevisiae [2] (setting [9]), 0.188 ± 0.056.
With ALLYIVVGWSLS, the protein stability index in the data set on Saccharomyces cerevisiae [1] is 0.24 ± 0.074; in the data set on Saccharomyces cerevisiae [2] (setting [3]), 0.0455 ± 0.011; with Saccharomyces cerevisiae [2] (setting [4]), 0.185 ± 0.033; with Saccharomyces cerevisiae [2] (setting [5]) it was 0.167 ± 0.026; in the data set with Saccharomyces cerevisiae [2] (setting [6]) it was 0.285 ± 0.025; in the data set with Saccharomyces cerevisiae [2] (setting [7]), 0.12 ± 0.019. Also, the protein stability index in the data set on Saccharomyces cerevisiae [2] (setting [8]) was found to be 0.145 ± 0.027; in the data set with Saccharomyces cerevisiae [2] (setting [9]), 0.231 ± 0.0024.
ALRLVAFFWVPG: the protein stability index in the data set on Saccharomyces cerevisiae [1] worked out at 0.422 ± 0.0081; in the data set on Saccharomyces cerevisiae [2] (setting [3]), 0.482 ± 0.063; in the data set on Saccharomyces cerevisiae [2] (setting [4]) it was 0.536 ± 0.038; in the data set on Saccharomyces cerevisiae [2] (setting [5]), 0.427 ± 0.025; in the data set on Saccharomyces cerevisiae [2] (setting [6]), 0.5392 ± 0.0037; with Saccharomyces cerevisiae [2] (setting [7]), 0.415 ± 0.035. Further, the protein stability index amounted to 0.4099 ± 0.0011 with Saccharomyces cerevisiae [2] (setting [8]) and 0.5126 ± 0.0048 in the data set on Saccharomyces cerevisiae [2] (setting [9]).
Consider ALTLSYAIKLKV, for which the protein stability index in the data set with Saccharomyces cerevisiae [1] was found to be 0.372 ± 0.014; in the data set with Saccharomyces cerevisiae [2] (setting [3]), 0.36 ± 0.02; in the data set on Saccharomyces cerevisiae [2] (setting [4]), 0.395 ± 0.022; in the data set with Saccharomyces cerevisiae [2] (setting [5]), 0.313 ± 0.032; in the data set on Saccharomyces cerevisiae [2] (setting [6]), 0.4594 ± 0.00077; in the data set with Saccharomyces cerevisiae [2] (setting [7]) it was 0.248 ± 0.0066. Besides, the protein stability index in the data set on Saccharomyces cerevisiae [2] (setting [8]) is 0.265 ± 0.025; in the data set on Saccharomyces cerevisiae [2] (setting [9]), 0.401 ± 0.027.
Regarding AMFQLRLLVGSV, the protein stability index in the data set on Saccharomyces cerevisiae [1] was 0.499 ± 0.033; in the data set with Saccharomyces cerevisiae [2] (setting [3]), 0.489 ± 0.036; with Saccharomyces cerevisiae [2] (setting [4]) it was 0.508 ± 0.018; with Saccharomyces cerevisiae [2] (setting [5]), 0.386 ± 0.037; with Saccharomyces cerevisiae [2] (setting [6]), 0.5436 ± 0.0049; with Saccharomyces cerevisiae [2] (setting [7]), 0.36 ± 0.016. Besides, the protein stability index with Saccharomyces cerevisiae [2] (setting [8]) is 0.391 ± 0.0056; in the data set with Saccharomyces cerevisiae [2] (setting [9]) it was 0.5001 ± 0.0027.
For the sequence APASFRVLISAF, the protein stability index with Saccharomyces cerevisiae [1] came out at 0.136 ± 0.0083; with Saccharomyces cerevisiae [2] (setting [3]), 0.021 ± 0.0017; in the data set with Saccharomyces cerevisiae [2] (setting [4]), 0.0368 ± 0.0029; with Saccharomyces cerevisiae [2] (setting [5]), 0.118 ± 0.035; in the data set with Saccharomyces cerevisiae [2] (setting [6]) it was 0.102 ± 0.013; with Saccharomyces cerevisiae [2] (setting [7]), 0.0642 ± 0.012. The protein stability index in the data set with Saccharomyces cerevisiae [2] (setting [8]) turned out to be 0.0969 ± 0.034; with Saccharomyces cerevisiae [2] (setting [9]), 0.0646 ± 0.018.
For the sequence APPRSLSPPLLS, the protein stability index in the data set on Saccharomyces cerevisiae [2] (setting [3]) amounted to 0.6637 ± 0.0036; with Saccharomyces cerevisiae [2] (setting [4]), 0.701 ± 0.011; in the data set on Saccharomyces cerevisiae [2] (setting [5]), 0.672 ± 0.022; with Saccharomyces cerevisiae [2] (setting [6]), 0.71 ± 0.0073; in the data set on Saccharomyces cerevisiae [2] (setting [7]) it was 0.679 ± 0.0075; in the data set on Saccharomyces cerevisiae [2] (setting [8]) it was 0.6795 ± 0.0034. In the data set on Saccharomyces cerevisiae [2] (setting [9]), this sequence yielded a protein stability index of 0.689 ± 0.016.
With ARFFFFCVGILI, the protein stability index in the data set with Saccharomyces cerevisiae [1] was 0.378 ± 0.035; with Saccharomyces cerevisiae [2] (setting [3]), 0.379 ± 0.0081; with Saccharomyces cerevisiae [2] (setting [4]) it was 0.474 ± 0.067; in the data set on Saccharomyces cerevisiae [2] (setting [5]) it was 0.339 ± 0.066; in the data set with Saccharomyces cerevisiae [2] (setting [6]), 0.503 ± 0.046; in the data set with Saccharomyces cerevisiae [2] (setting [7]), 0.295 ± 0.035. The protein stability index worked out at 0.354 ± 0.017 in the data set with Saccharomyces cerevisiae [2] (setting [8]) and 0.4581 ± 0.0031 in the data set with Saccharomyces cerevisiae [2] (setting [9]).

These data come from the supplement of paper PMC10724198.
